Experimental findings from PMC7332966 are described below.

One data set addresses FANCI (I);FANCD2 (D2) (Homo sapiens;Homo sapiens, UniProt Q9NVI1;Q9BXW9 1-1328;1-1451, |). Description: PIFE; 150 mM NaCl; Kd only in bar graph; EMSA: 16 mM Tris-HCl pH 8, 150 mM NaCl, 4.4% glycerol, 0.07 mg/ml BSA, 7 mM DTT, 4 mM EDTA, 2 nM DNA, on ice 20 min, 4% PAGE in 0.5x TBE (4 C). PIFE: 150 mM NaCl, 125 nM DNA, 22 C. As to conditions: protein: recombinant;recombinant; tags: His6-TEV-V5 (N-term); His6-3C, cleaved in some cases; copies: 1;1; label: 5' IRDye700 on both strands; blunt. For orientation: In EMSA bound probe runs differently from free probe, usually more slowly.

A further data set addresses FANCI R1285Q;FANCD2 (D2) (Homo sapiens;Homo sapiens, UniProt Q9NVI1;Q9BXW9 1-1328;1-1451, R1285Q|). The data set is described as follows: PIFE; minor, insignificant reduction vs WT I+D2; Kd only in bar graph; EMSA: 16 mM Tris-HCl pH 8, 150 mM NaCl, 4.4% glycerol, 0.07 mg/ml BSA, 7 mM DTT, 4 mM EDTA, 2 nM DNA, on ice 20 min, 4% PAGE in 0.5x TBE (4 C). PIFE: 150 mM NaCl, 125 nM DNA, 22 C. Particulars: protein: recombinant;recombinant; tags: His6 (N-term);FLAG (EMSA); His6-3C, cleaved in some cases; copies: 1;1; label: 5' IRDye700 on both strands; blunt.

FANCI (I);FANCD2 (D2), sequence (Q9NVI1 whole entry, chain 1 of 2): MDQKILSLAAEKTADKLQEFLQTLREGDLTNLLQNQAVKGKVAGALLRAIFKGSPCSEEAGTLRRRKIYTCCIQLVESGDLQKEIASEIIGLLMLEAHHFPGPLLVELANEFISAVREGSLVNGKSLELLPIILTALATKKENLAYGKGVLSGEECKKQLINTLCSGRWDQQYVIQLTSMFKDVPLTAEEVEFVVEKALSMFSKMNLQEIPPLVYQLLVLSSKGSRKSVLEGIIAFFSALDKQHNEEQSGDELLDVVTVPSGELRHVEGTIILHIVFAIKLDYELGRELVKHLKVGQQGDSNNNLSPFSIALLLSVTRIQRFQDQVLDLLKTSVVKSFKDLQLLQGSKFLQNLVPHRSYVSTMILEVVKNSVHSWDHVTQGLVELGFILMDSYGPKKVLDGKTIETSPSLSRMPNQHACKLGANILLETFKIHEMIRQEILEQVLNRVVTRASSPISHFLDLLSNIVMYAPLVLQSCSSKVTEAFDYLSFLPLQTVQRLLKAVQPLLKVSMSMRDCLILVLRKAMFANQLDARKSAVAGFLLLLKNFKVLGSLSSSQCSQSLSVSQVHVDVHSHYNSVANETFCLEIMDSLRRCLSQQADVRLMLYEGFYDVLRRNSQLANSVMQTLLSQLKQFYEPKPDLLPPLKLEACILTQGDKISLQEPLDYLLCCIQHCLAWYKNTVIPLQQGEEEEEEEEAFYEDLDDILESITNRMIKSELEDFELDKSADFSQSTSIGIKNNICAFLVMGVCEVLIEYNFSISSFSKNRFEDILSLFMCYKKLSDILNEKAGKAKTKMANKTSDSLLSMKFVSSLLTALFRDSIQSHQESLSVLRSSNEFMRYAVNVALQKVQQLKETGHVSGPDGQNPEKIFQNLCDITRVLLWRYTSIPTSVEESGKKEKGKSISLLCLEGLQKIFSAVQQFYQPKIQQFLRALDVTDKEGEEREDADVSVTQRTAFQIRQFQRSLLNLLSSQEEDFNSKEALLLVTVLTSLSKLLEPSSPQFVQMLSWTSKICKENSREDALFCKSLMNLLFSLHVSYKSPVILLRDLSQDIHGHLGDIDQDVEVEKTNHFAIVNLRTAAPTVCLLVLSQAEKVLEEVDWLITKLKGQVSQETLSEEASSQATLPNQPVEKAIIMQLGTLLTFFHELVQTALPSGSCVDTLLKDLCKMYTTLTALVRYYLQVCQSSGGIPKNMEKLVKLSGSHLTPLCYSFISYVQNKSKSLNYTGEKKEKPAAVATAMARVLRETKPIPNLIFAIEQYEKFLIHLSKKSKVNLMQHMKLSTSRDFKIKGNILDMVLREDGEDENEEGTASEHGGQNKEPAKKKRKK
FANCI (I);FANCD2 (D2), sequence (Q9BXW9 whole entry, chain 2 of 2): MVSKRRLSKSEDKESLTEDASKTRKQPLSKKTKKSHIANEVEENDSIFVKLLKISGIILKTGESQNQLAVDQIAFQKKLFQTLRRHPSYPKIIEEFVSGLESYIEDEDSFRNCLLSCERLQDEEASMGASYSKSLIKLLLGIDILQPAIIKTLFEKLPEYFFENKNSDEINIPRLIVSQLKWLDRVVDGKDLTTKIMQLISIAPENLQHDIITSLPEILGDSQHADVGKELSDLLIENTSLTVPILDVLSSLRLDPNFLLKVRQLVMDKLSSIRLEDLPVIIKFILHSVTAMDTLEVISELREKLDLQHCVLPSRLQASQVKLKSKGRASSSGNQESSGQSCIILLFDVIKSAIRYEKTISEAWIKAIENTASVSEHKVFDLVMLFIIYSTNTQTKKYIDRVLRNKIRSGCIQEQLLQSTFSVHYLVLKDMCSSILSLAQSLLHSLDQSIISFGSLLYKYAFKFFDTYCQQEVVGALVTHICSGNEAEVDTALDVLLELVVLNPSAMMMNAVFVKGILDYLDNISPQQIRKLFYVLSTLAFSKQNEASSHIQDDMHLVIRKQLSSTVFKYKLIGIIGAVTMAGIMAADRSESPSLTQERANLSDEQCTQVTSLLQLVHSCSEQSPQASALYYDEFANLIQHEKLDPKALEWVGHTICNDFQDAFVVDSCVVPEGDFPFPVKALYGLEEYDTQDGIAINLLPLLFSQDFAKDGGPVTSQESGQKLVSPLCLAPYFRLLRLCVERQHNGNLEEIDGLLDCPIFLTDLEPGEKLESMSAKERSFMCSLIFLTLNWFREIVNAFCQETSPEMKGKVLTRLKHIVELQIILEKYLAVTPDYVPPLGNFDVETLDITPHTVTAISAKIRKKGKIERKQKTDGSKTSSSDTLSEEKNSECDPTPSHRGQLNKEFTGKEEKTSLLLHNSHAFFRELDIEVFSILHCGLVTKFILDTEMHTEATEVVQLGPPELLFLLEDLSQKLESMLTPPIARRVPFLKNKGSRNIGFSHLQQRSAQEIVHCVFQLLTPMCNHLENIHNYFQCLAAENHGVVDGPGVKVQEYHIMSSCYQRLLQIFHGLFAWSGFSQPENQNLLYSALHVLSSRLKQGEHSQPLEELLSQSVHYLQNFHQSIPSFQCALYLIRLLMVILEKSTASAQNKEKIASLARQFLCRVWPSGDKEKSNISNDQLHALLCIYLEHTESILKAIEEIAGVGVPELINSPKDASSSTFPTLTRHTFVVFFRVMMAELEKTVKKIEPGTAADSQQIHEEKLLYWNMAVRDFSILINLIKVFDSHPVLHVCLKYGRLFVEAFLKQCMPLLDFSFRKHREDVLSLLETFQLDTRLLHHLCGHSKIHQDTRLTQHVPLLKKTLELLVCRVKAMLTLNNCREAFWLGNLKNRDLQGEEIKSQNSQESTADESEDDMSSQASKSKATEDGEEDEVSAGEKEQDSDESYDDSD
FANCI R1285Q;FANCD2 (D2), sequence (Q9NVI1 whole entry R1285Q, chain 1 of 2): as the sequence (Q9NVI1 whole entry, chain 1 of 2) above, with R1285Q counted along it
FANCI R1285Q;FANCD2 (D2), sequence (Q9BXW9 whole entry, chain 2 of 2): as the sequence (Q9BXW9 whole entry, chain 2 of 2) above

B1: ds32F (dsDNA)
DNA 1: CGATCGGTAACGTATGCTGAATCTGGTGCTGG
DNA 2: CCAGCACCAGATTCAGCATACGTTACCGATCG
Turning to B1, the binding result with FANCI (I);FANCD2 (D2) and with FANCI R1285Q;FANCD2 (D2) was “binds” each time.
